From article PMC10233464 come the findings set out here.

The assay deals with Type V collagen from human placenta (human) (UniProt P20908). The assay is described as follows: ELISA; type V collagen coated on 96-well plates (10 ug/ml in carbonate coating buffer, overnight 4 °C), blocked with 0.5 % BSA in TBS; about 1.0x10^8 whole bacteria per well, 1 h at 37 °C; adhered bacteria detected with anti-serotype a or anti-serotype b whole-cell polyclonal antibody and HRP secondary; activity normalised to a reference strain set at 100 %. A general note: ELISA stands for enzyme-linked immunosorbent assay.
UniProt P20908, sequence (P20908 38-1605, chain 1 of 2): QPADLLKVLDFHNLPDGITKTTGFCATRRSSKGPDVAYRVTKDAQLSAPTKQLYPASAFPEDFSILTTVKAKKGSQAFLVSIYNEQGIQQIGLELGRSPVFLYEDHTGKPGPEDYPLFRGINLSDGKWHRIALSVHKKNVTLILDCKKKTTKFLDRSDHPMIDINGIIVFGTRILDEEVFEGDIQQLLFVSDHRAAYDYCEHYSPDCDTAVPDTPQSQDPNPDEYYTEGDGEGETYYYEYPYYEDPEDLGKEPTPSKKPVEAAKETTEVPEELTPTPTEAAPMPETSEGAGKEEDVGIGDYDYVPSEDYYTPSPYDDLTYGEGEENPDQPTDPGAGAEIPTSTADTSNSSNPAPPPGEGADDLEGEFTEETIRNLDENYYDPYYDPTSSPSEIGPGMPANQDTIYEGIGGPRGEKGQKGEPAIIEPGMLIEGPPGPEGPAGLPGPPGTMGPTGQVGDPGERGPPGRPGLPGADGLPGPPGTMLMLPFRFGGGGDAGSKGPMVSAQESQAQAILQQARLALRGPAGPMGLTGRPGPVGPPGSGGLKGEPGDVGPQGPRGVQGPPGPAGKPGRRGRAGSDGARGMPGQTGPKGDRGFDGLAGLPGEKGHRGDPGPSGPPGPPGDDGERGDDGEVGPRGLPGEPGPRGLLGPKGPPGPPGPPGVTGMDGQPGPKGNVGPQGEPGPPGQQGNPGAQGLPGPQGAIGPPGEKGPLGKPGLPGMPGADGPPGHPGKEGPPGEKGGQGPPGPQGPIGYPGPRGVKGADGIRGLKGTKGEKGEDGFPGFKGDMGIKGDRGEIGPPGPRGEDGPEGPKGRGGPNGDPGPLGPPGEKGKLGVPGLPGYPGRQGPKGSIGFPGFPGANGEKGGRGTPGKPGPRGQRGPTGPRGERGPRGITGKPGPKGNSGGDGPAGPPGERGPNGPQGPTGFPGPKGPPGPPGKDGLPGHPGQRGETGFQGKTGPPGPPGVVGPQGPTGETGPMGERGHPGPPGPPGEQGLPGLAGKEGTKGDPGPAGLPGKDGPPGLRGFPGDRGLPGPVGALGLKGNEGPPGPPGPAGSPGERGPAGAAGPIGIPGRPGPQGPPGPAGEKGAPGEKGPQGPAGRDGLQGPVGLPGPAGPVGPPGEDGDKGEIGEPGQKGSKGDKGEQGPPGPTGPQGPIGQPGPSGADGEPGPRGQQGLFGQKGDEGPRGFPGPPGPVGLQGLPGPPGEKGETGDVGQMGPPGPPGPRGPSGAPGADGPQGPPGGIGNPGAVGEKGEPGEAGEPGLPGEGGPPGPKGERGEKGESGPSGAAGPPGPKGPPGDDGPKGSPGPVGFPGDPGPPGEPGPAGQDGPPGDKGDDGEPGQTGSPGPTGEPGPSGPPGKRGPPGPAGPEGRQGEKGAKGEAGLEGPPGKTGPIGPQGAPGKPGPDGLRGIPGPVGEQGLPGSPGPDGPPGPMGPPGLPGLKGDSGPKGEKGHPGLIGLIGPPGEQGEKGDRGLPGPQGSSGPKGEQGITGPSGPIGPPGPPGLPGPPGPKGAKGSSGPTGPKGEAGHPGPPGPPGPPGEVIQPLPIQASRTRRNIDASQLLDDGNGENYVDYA
UniProt P20908, sequence (P05997 27-1229, chain 2 of 2, further chain): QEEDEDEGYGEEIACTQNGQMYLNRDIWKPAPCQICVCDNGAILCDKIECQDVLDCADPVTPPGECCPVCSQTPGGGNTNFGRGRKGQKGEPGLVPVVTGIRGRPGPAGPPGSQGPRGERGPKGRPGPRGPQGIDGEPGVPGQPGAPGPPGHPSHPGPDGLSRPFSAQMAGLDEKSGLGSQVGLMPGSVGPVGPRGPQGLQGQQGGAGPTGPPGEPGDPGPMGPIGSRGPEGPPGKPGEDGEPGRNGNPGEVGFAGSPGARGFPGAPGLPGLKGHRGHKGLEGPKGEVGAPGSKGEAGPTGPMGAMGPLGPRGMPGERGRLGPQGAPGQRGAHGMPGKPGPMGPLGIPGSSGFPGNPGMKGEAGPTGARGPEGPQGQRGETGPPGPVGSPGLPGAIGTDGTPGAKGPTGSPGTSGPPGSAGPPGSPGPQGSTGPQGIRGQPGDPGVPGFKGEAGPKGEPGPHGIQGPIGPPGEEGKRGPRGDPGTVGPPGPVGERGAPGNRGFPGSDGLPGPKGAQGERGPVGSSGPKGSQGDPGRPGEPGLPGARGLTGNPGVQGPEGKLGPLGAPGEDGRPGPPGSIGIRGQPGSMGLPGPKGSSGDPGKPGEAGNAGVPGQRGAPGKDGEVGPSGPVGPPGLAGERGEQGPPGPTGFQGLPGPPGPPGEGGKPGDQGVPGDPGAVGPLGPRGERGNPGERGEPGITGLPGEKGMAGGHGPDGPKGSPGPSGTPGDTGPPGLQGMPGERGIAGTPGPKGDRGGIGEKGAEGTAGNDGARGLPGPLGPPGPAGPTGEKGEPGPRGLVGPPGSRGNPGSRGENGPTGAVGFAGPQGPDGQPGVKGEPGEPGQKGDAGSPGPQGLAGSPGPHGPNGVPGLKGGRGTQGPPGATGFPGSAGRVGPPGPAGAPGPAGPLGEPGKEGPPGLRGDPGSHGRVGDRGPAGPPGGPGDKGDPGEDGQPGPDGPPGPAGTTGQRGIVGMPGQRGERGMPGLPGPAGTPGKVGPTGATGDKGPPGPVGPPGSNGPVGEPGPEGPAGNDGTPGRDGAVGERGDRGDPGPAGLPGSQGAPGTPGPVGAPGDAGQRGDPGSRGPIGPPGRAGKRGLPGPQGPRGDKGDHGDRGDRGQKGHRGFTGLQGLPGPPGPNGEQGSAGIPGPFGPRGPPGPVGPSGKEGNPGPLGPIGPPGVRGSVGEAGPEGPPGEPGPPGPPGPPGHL

The substance “a-EmaA (extracellular matrix protein adhesin A, 173 kDa isoform of serotype a) expressed from pKM753 in strain ATCC 29523 (natural protein)” yielded a fold increase in collagen binding over the emaA mutant strain ATCC 29523 of more than 2 fold.
For “a-EmaA expressed from a plasmid in the serotype b O-PS-deficient rmlC mutant strain (natural protein)”, the fold increase in collagen binding over the rmlC mutant strain amounted to 4.6 fold and the fold of the collagen binding of the serotype b wild-type strain is more than 2 fold.
